Measured values reported in paper PMC7614784, “Structure and function of the RAD51B-RAD51C-RAD51D-XRCC2 tumour suppressor” (Nature, 2023).

T1: BCD(R221A)X2 (Homo sapiens, UniProt O15315;O43502;O75771;O43543 1-345;1-376;1-328;1-280, R221A)
T1 sequence 1: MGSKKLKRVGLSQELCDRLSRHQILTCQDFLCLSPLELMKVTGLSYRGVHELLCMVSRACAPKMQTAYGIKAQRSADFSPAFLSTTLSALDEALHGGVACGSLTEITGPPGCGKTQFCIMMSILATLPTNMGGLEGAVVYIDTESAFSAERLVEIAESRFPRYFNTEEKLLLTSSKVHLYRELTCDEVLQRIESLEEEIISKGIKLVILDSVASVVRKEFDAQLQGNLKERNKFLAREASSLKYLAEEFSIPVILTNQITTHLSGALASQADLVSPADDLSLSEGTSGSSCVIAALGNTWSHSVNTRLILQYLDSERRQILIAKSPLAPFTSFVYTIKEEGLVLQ
T1 sequence 2: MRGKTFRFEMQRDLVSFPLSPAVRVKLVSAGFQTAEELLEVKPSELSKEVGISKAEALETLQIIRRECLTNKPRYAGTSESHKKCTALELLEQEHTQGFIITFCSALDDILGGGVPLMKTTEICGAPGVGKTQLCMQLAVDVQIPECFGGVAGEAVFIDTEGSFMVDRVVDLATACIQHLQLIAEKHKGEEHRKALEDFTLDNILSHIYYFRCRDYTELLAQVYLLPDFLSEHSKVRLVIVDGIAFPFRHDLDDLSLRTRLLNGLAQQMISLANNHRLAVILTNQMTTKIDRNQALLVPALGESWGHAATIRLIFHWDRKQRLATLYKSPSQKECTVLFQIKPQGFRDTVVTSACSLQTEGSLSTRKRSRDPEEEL
T1 sequence 3: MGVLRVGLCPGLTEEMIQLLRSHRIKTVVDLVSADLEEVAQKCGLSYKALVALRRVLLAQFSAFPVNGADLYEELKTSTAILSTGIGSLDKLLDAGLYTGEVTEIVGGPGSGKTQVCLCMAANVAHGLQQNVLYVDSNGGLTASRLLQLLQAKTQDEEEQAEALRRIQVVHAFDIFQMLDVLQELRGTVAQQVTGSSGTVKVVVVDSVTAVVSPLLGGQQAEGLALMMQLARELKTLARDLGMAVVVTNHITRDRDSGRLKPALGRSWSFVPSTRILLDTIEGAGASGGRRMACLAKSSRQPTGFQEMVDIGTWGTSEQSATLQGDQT
T1 sequence 4: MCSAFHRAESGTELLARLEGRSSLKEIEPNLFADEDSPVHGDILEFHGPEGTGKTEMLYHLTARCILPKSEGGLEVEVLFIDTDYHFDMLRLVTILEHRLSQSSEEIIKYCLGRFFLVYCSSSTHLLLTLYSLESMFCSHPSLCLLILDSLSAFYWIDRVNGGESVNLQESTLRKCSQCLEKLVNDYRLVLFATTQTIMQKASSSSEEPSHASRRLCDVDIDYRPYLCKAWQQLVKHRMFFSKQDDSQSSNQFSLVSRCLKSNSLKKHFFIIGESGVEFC

T2: B(R217A)CDX2 (Homo sapiens, UniProt O15315;O43502;O75771;O43543 1-345;1-376;1-328;1-280, R217A)
T2 sequence 1: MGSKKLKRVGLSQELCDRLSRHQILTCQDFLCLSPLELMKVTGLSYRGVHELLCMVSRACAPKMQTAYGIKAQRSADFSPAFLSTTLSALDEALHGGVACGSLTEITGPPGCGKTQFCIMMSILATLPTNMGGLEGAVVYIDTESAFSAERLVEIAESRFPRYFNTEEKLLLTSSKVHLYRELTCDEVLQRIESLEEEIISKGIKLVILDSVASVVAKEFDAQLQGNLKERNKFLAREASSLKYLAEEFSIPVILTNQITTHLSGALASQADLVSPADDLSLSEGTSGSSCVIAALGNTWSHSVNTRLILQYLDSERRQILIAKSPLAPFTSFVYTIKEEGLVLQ
T2 sequence 2: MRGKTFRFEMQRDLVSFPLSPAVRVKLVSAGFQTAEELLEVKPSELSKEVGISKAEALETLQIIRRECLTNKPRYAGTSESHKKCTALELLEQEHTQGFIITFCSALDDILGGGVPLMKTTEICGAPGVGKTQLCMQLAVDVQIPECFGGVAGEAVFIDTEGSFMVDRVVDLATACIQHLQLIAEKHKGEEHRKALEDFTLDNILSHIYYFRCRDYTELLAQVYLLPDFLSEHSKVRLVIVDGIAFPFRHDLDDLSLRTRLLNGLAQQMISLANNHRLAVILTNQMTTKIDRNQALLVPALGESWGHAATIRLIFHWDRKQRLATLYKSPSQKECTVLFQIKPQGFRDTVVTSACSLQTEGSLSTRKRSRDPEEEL
T2 sequence 3: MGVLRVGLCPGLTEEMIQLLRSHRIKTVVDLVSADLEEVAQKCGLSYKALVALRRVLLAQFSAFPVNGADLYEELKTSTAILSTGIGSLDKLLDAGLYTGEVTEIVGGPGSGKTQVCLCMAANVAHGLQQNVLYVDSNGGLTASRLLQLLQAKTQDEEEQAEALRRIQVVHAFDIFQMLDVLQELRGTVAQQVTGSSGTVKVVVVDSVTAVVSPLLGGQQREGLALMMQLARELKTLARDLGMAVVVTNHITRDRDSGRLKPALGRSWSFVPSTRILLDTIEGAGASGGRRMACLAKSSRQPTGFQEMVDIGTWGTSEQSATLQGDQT
T2 sequence 4: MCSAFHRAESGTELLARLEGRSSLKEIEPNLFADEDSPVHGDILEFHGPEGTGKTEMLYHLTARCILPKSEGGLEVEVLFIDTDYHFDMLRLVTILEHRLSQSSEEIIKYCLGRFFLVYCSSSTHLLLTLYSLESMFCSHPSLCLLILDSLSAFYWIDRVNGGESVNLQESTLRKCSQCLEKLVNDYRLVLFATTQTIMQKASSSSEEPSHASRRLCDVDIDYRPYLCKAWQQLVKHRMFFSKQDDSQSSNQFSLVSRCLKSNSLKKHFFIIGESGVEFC

T3: B(R231A)CDX2 (Homo sapiens, UniProt O15315;O43502;O75771;O43543 1-345;1-376;1-328;1-280, R231A)
T3 sequence 1: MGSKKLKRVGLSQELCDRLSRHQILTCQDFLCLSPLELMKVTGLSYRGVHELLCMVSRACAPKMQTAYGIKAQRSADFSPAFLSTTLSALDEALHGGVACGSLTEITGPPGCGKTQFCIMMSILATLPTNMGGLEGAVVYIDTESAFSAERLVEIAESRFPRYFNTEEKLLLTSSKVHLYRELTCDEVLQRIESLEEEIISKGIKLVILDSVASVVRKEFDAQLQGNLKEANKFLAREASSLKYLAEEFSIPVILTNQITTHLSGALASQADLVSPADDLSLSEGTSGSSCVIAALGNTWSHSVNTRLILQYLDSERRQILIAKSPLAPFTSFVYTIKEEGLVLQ
T3 sequence 2: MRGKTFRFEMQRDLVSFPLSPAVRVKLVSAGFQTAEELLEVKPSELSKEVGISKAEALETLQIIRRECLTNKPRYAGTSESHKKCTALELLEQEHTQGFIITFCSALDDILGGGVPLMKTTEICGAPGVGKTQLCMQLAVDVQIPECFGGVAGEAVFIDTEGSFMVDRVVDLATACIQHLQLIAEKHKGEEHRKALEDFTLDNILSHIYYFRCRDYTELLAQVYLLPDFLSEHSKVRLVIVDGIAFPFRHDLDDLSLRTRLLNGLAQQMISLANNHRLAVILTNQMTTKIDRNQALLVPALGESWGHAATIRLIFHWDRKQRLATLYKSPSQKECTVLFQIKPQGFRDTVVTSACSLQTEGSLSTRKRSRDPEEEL
T3 sequence 3: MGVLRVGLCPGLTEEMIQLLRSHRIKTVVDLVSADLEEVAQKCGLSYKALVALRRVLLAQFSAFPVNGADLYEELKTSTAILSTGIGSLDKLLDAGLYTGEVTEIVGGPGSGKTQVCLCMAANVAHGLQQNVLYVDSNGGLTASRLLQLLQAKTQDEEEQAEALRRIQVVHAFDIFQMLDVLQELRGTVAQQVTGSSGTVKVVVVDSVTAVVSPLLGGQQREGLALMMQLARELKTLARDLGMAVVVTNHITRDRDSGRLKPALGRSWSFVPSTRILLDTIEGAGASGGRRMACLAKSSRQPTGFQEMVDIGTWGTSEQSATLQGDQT
T3 sequence 4: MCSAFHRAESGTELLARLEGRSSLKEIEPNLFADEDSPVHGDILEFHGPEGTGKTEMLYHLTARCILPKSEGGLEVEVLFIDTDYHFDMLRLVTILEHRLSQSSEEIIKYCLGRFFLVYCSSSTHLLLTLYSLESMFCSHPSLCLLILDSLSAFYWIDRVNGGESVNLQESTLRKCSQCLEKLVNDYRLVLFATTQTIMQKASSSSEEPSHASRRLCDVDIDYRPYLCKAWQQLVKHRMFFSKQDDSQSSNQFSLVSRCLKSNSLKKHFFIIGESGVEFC

T4: B(AF647)CDX2 (Homo sapiens, UniProt O15315;O43502;O75771;O43543 1-345+=GGGSGGGDSLEFIASKLA;1-376;1-328;1-280, internal_change)
T4 sequence 1: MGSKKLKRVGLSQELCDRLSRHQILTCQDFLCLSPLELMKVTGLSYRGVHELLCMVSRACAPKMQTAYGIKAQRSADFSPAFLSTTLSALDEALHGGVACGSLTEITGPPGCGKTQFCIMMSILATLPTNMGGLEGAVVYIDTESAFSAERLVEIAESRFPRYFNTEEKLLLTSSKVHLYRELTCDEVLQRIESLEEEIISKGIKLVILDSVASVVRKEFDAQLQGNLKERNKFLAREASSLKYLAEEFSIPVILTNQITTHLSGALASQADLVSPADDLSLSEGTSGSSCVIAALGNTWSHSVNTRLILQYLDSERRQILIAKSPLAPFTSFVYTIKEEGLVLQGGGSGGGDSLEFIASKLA
T4 sequence 2: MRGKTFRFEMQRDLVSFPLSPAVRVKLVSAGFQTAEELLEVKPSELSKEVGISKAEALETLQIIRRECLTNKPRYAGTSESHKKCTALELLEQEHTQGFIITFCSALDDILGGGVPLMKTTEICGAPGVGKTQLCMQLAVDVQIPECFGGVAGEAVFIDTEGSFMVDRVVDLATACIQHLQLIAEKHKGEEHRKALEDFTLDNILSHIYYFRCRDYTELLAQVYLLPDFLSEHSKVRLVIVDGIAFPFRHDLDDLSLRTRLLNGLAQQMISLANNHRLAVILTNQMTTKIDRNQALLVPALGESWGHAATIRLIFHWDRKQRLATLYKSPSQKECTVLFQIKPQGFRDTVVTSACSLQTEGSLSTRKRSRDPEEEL
T4 sequence 3: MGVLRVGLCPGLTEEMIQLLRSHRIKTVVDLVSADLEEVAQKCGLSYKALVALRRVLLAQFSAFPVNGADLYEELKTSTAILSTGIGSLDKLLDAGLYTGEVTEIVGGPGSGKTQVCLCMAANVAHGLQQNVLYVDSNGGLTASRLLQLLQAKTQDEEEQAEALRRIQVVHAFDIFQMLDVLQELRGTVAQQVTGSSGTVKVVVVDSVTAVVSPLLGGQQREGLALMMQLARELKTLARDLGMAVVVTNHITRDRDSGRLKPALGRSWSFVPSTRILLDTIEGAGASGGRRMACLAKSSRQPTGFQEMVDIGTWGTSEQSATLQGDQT
T4 sequence 4: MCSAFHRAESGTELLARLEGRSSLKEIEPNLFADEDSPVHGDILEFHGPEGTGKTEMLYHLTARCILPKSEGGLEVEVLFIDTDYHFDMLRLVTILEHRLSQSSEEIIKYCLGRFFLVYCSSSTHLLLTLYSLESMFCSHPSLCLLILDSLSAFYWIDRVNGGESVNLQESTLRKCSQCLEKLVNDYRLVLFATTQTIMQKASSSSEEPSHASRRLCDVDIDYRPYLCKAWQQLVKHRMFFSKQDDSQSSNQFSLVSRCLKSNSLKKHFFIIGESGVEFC


Legend:
BCD(R221A)X2 = target: T1, BCD(R221A)X2; test: fluorescence anisotropy; 1 mM ATP; minimal effect; FA: protein in 25 mM HEPES pH 7.5, 10% glycerol, 2.5 mM MgCl2, 0.25 mM TCEP, 150 mM NaCl mixed 1:1 with oligo in HMT buffer, 50 mM NaCl (final ~100 mM NaCl, 5%); conditions: protein: recombinant; tags: N-terminal TwinStrep-TEV on XRCC2, cleaved; copies: 1;1;1;1; label: 5'-FAM
B(R217A)CDX2 = target: T2, B(R217A)CDX2; test: fluorescence anisotropy; 1 mM ATP; similar to WT; FA: protein in 25 mM HEPES pH 7.5, 10% glycerol, 2.5 mM MgCl2, 0.25 mM TCEP, 150 mM NaCl mixed 1:1 with oligo in HMT buffer, 50 mM NaCl (final ~100 mM NaCl, 5%); conditions: protein: recombinant; tags: N-terminal TwinStrep-TEV on XRCC2, cleaved; copies: 1;1;1;1; label: 5'-FAM
B(R231A)CDX2 = target: T3, B(R231A)CDX2; test: as above; conditions: protein: recombinant; tags: N-terminal TwinStrep-TEV on XRCC2, cleaved; copies: 1;1;1;1; label: 5'-FAM
B(AF647)CDX2 = target: T4, B(AF647)CDX2; test: bulk FRET; high FRET; RAD51B near 3' end; FA: protein in 25 mM HEPES pH 7.5, 10% glycerol, 2.5 mM MgCl2, 0.25 mM TCEP, 150 mM NaCl mixed 1:1 with oligo in HMT buffer, 50 mM NaCl (final ~100 mM NaCl, 5%); conditions: protein: recombinant; TwinStrep-TEV on XRCC2 not cleaved; copies: 1;1;1;1; label: 3'-Cy3

Binder | binding result (BCD(R221A)X2) | binding result (B(R217A)CDX2) | binding result (B(R231A)CDX2) | binding result (B(AF647)CDX2)
TATCGAATCCGTCTA (ssDNA) [FAM-dN15nt] | binds | binds | binds | 
TATCGAATCCGTCTA (ssDNA) [dN15nt-Cy3-3'] |  |  |  | binds
